# Assays:
# Test in all cases: magnetic tweezers SMBA
# [1] = test system: yUPF1 helicase domain (Saccharomyces cerevisiae); details: no ATP; 7 pN; n=11; SMBA in helicase buffer without ATP (composition not in the material), 1-20 nM helicase, force cycles >15 pN / 7 pN / <3 pN
# [2] = test system: UPF1/BC (Saccharomyces cerevisiae / Homo sapiens chimera); details: no ATP; slides; SMBA in helicase buffer without ATP (composition not in the material), 1-20 nM helicase, force cycles >15 pN / 7 pN / <3 pN
# [3] = test system: IGHMBP2-FL (Homo sapiens); details: no ATP; 7 pN; n=27; SMBA in helicase buffer without ATP (composition not in the material), 1-20 nM helicase, force cycles >15 pN / 7 pN / <3 pN
# [4] = test system: IGHMBP2/BC (Homo sapiens / Saccharomyces cerevisiae chimera); details: no ATP; SMBA in helicase buffer without ATP (composition not in the material), 1-20 nM helicase, force cycles >15 pN / 7 pN / <3 pN
# [5] = test system: IGHMBP2 helicase core (Homo sapiens); details: no ATP; 7 pN; n=48; SMBA in helicase buffer without ATP (composition not in the material), 1-20 nM helicase, force cycles >15 pN / 7 pN / <3 pN
# [6] = test system: UPF1 R487S (R-S) (Saccharomyces cerevisiae); details: SMBA in helicase buffer without ATP (composition not in the material), 1-20 nM helicase, force cycles >15 pN / 7 pN / <3 pN
substance,measurement,setting,value
magnetic tweezers DNA hairpin,binding signal (s (residence time)),[1],> 5500
same,binding signal (s (residence time)),[2],930
same,binding signal (s (residence time)),[3],60
same,binding signal (s (residence time)),[4],9540
same,binding signal (s (residence time)),[5],20
same,binding signal (s (residence time)),"[6]; ADPNP, sliding -0.109 nm/s, n=58",1630
same,binding signal (s (residence time)),"[6]; no ATP, sliding -0.063 nm/s",1840

# From article PMC6138625
